Results taken from patent US20220162322A1 (CAPELLA BIOSCIENCE, published 2022).
Substitutions are numbered along the chain they refer to. One block for each binder: values may come before it.

How the values were obtained:
[1] = target: T1, human BDCA-2-Fc (hIgG1-Fc-hBDCA-2) (human); test: ELISA on plate-coated human BDCA2-Fc
T1 construct: also called huBDCA2-Fc
Procedure: 100 ul per well of 0.5 μg/ml of human BDCA2-Fc in PBS pH 7.4 was incubated overnight at 4 C. The wells were then washed 3 times with PBST (PBS+0.05% Tween 20) and then blocked with 250 ul 4% Skimmed Milk (Marvel, cat. no. 3023033 Lot no. 7169) in PBS for 120 min at RT. The wells were washed and then incubated with 100 ul per well of humanized mAbs at 3 fold dilutions (from 1 μg/ml to 0.001 μg/ml) in 1% Skimmed Milk PBS buffer at pH 7.4. After 60 min at RT the wells were washed 3 times in PBST and 100 ul of mouse anti-human IgG (anti-CH1-HRP; 1:1000, BD Pharmigen cat. no. 555788) or donkey anti-mouse IgG (anti-mouse IgG-HRP) at 1:5000 dilution (Jackson ImmunoResearch, Cat. no. 715-035-150) in 1% Skimmed Milk PBS was added. Development was with TMB (ThermoFisher, cat. no. 00-4201-56), 100 ul/well and the reaction stopped with 100 μl/well H2SO4 (cat. nr. J/8430/15, lot nr.) and the absorbance read at 450 nm. The EC50 was calculated using Graphpad Prism software. A negative (1% Skimmed Milk/PBS) and positive control (anti-BDCA-2, AC144, Miltenyi Biotec, cat. no. 130-090-690) were utilised in the assay.

[2] = target: T1, human BDCA-2-Fc (hIgG1-Fc-hBDCA-2); test: SPR (BIAcore), comparison of KD
[3] = target: T1, human BDCA-2-Fc (hIgG1-Fc-hBDCA-2); test: SPR (BIAcore T200), huBDCA2-Fc immobilised on CM5 chip, mAb injected
Procedure: A BIAcore T200 was used with BIAcore run buffer (HBS-EP) at pH7.4. 692RU of huBDCA2-Fc was immobilized to a CM5 chip (CFJB156) utilising 5 μg/ml of huBDCA2-Fc with the BIAcore EDC/NHS kit according to the manufacturer's instructions. Two-fold dilutions of the humanized mAbs were injected starting at 200 nM down to 3.1 nM with a contact time of 60 s at a flow of 30 or 60 ul/min at 25° C. followed by an off-rate wash for 5 minutes with BIAcore buffer. […] The BIAcore T200 software was used to calculate Ka (1/Ms), Kd (1/s) and the KD (nM).

[4] = target: T2, BDCA-2 (CLEC4C, CD303) on human plasmacytoid dendritic cells (purified pDC or pDC within PBMC) (human, UniProt Q8WTT0 1-213); test: cell-based or functional assay
T2 sequence: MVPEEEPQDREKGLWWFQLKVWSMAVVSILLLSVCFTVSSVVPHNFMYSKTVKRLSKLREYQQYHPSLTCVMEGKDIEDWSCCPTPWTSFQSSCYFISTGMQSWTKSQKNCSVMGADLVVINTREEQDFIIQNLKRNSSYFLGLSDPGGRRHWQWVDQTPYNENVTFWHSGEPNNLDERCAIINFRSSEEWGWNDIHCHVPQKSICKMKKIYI

[5] = target: T2, BDCA-2 (CLEC4C, CD303) on human …; test: cell-based or functional assay; remark: listed apart in the source
[6] = target: T3, cynomolgus BDCA-2 expressed on transfected U937 cells (cynomolgus, UniProt Q8WTT0 1-213 (human entry)); test: flow cytometry (MFI titration) on cells expressing cynomolgus BDCA-2
T3 construct: also called cell expressed cynomolgus BDCA-2
T3 chain: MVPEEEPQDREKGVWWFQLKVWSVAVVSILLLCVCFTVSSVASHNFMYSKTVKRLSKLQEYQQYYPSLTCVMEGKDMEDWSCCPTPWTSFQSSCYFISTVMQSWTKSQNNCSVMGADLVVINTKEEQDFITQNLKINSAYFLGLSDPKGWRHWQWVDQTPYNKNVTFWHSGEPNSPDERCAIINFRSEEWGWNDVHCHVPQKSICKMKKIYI
Procedure: (§1) Cells expressing human and cynomolgus BDCA-2 were resuspend at 2×10⁶ cells/mi in FACS buffer (2% FBS/PBS) and 50 μl of the cell suspension was added per well, in a 96-well V bottom plate. The plate was centrifuge and the supernatant discarded. 12 serial, 2-fold dilutions of mAbs, starting at 50 μg/ml (range 50-0.024 μg/ml), in FACS buffer were prepared and 25 μl of the mAb dilutions added to wells, in triplicate. The plate was then incubated for 60 min at room temperature then centrifuged and washed 3× with 150 μl FACS buffer. To each well was then added 25 μl goat-anti-human PE conjugate (or goat-anti-mouse in the case of AC144), diluted 1:200 in FACS buffer. The plates were incubated for 60 min at room temperature protected from light and centrifuged and washed 3× with 150 μl FACS buffer. 25 μl per well of 2% PFA 2% was added and incubated for 20 min at 4° C., protected from light and analysed on the iQue screener.
(§2) Serial dilutions of the 4 chimeric mAbs (50-0.25 ug/ml) were prepared and incubated with cells expressing human and cynomolgus BDCA-2. After staining, the median fluorescence intensity (MFI) of the cells was measured and the data points of the dilution series were fitted on a sigmoidal curve after normalization to determine the EC50 values.

[7] = target: T4, human BDCA-2 (CLEC4C) expressed on transfected U937 cells (human, UniProt Q8WTT0 1-213); test: flow cytometry (MFI titration) on cells expressing human BDCA-2
T4 construct: also called cell expressed human BDCA-2; Q8WTT0
T4 sequence: T2 sequence
Procedure: as §1, §2

T1 sequence (chain, as listed by the source limits assumed): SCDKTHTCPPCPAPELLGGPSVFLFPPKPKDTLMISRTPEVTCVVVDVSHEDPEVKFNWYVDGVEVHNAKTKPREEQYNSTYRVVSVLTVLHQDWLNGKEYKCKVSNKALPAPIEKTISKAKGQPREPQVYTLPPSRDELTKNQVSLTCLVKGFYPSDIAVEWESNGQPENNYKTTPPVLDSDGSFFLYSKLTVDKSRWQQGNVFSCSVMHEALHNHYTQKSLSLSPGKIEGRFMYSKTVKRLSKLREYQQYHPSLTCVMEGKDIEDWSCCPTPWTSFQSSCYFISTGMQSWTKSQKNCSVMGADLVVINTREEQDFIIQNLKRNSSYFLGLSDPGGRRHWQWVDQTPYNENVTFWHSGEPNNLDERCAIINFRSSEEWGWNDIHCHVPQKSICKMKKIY

B1: 3E05_var1 (antibody, human IgG1, V domains shown)
VH: EVQLVESGGGLVKPGGSLRLSCAASGFTFSSYTMSWVRQAPGKGLEWVAYISSGGGNTYYPDSVKGRFTISRDNAKNSLYLQMNSLRAEDTAVYYCARHDYYDGGLYYAMDYWGQGTLVTVSS
VL: DIVMTQSPDSLAVSLGERATINCKASQSVDYDGDSSMNWYQQKPGQPPKLLISAASTLESGVPSRFSGSGSGTDFTLTISSLQAEDVAVYYCQQTNEDPPTFGGGTKVEIK
notes: also called 3E05 VL1VH1 (var_1)
EC50 [1]: 0.51 nM | fold higher affinity than parental wild type 3E05 and AC144 [2]: > 100 fold | Kd [3]: < 0.01 nM

B3: 3E05_var10 (antibody, human IgG1, V domains shown)
VH: B1 VH with E1Q, A49S, P61A
VL: B1 VL with A25S, S53Y, V89T
notes: also called 3E05 VL3VH2 (var_10)
EC50 [1]: 0.71 nM | Kd [3]: 0.73 nM

B6: 3E05_var11 (antibody, human IgG1, V domains shown)
VH: B1 VH with N57Q
VL: B1 VL with A25S, S53Y, V89T
notes: also called 3E05 VL3VH3 (var_11)
EC50 [1]: 0.81 nM | Kd [3]: 0.94 nM

B7: 3E05_var2 (antibody, human IgG1, V domains shown)
VH: B1 VH with E1Q, A49S, P61A
VL: B1 VL
notes: also called 3E05 VL1VH2 (var_2)
EC50 [1]: 0.32 nM | Kd [3]: 0.3 nM

B12: 3E05_var14 (antibody, human IgG1, V domains shown)
VH: B1 VH with E1Q, A49S, P61A
VL: B1 VL with D32E
notes: also called 3E05 VL4VH2 (var_14); 3E05VL4VH2 (var_14)
EC50 [1]: 0.32 nM | fold higher affinity than parental wild type 3E05 and AC144 [2]: > 100 fold | IC50, nM; inhibition of IFNα from ODN stimulated healthy donor PBMC [4]: 0.13 nM | IC90, nM; inhibition of IFNα from ODN stimulated healthy donor PBMC [4]: 1.15 nM | IC50, ng/ml; inhibition of IFNα from ODN stimulated healthy donor PBMC [5]: 19.3 ng/mL | IC90, ng/ml; inhibition of IFNα from ODN stimulated healthy donor PBMC [5]: 173 ng/mL | Kd [3]: < 0.01 nM

B13: 3E05_var6 (antibody, human IgG1, V domains shown)
VH: B1 VH with E1Q, A49S, P61A
VL: B1 VL with A25S, V89T
notes: also called 3E05 VL2VH2 (var_6); 3E05VL2VH2 (var_6)
EC50 [1]: 0.29 nM | fold higher affinity than parental wild type 3E05 and AC144 [2]: > 100 fold | IC50, nM; inhibition of IFNα from ODN stimulated healthy donor PBMC [4]: 0.08 nM | IC90, nM; inhibition of IFNα from ODN stimulated healthy donor PBMC [4]: 0.73 nM | IC50, ng/ml; inhibition of IFNα from ODN stimulated healthy donor PBMC [5]: 12.3 ng/mL | IC90, ng/ml; inhibition of IFNα from ODN stimulated healthy donor PBMC [5]: 110 ng/mL | Kd [3]: < 0.01 nM

B14: 3E05_var5 (antibody, human IgG1, V domains shown)
VH: B1 VH
VL: B1 VL with A25S, V89T
notes: also called 3E05 VL2VH1 (var_5)
EC50 [1]: 0.51 nM | fold higher affinity than parental wild type 3E05 and AC144 [2]: > 100 fold | Kd [3]: < 0.01 nM

B15: 3E05_var3 (antibody, human IgG1, V domains shown)
VH: B1 VH with N57Q
VL: B1 VL
notes: also called 3E05 VL1VH3 (var_3)
EC50 [1]: 0.27 nM | fold higher affinity than parental wild type 3E05 and AC144 [2]: > 100 fold | Kd [3]: < 0.01 nM

B16: chimeric mAb 25E06 (antibody, human IgG1, V domains shown)
VH: EVKLVESGGGLVKPGGSLKLSCAASGFTFSSYTMSWVRQTPEKRLEWVAYISGVGGDTYYPDSVKGRFTISRDNARNTLYLQMSSLRSEDTAMFYCARHHYSHYFWYFDVWGAGTTVTVSS
VL: DIVLTQSPASLAVSLGQRATISCKASQSVDYDGDGFMNWYQQKPGQPPKLLIYAASNLESGIPARFSGSGSGADFTLNIHPVEEEDAATYYCQQSNEDPPTFGGGTKLEIK
notes: also called Parental 25E06
EC50 [6]: 1.35 µg/mL | EC50 [7]: 0.57 µg/mL

B17: chimeric mAb 21E06 (antibody, human IgG1, V domains shown)
VH: EVKLVESGGGLVKSGGSLKLSCEVSGFTFSSYTISWVRQTPEKRLEWVAYISSGGDNAYYPDSVKGRFTISRDNARNTLYLQMSSLRSEDTAMYYCARHLYYGDYFYVMDYWGQGTSVTVSS
VL: B16 VL with G35N, F36C, M37L, N38H, Y40F, A73T
notes: also called Parental 21E06
EC50 [6]: 0.92 µg/mL | EC50 [7]: 0.3 µg/mL

B18: chimeric mAb 28B01 (antibody, human IgG1, V domains shown)
VH: B16 VH with S31Y, G53S, V54G, G56D, D57N, T58A, K65R, F94Y, H103N
VL: B16 VL with D32A, G35S, F36Y, M37V, A73T
notes: also called 28B1; Parental 28B01
EC50 [6]: 0.79 µg/mL | EC50 [7]: 0.77 µg/mL

B19: anti-BDCA-2 mAb BIIB059 (from patent WO2014093396) (antibody, V domains shown)
VH: DVQLVESGGGLVKPGGSLRLSCAASGFTFSTYTMSWVRQAPGKGLEWVATISPGDSFGYYYPDSVQGRFTISRDNAKNSLYLQMNSLRAEDTAVYYCTRDIYYNYGAWFAYWGQGTLVTVSS
VL: DIQLTQSPSSLSASVGDRVTITCKASQSVDYDGDSYMNWYQQKPGKAPKLLIYAASTLESGVPSRFSGSGSGTDFTLTISSLQPEDFATYYCQQANEDPRTFGQGTKVEIKR
Kd [3]: 0.7 nM

Continued, values first:

EC50 [1]: 0.25 nM | fold higher affinity than parental wild type 3E05 and AC144 [2]: > 100 fold | Kd [3]: < 0.01 nM
B2: 3E05_var15 (antibody, human IgG1, V domains shown)
VH: B1 VH with N57Q
VL: B1 VL with D32E
notes: also called 3E05 VL4VH3 (var_15)

EC50 [1]: 1.12 nM | fold higher affinity than parental wild type 3E05 and AC144 [2]: > 100 fold | Kd [3]: < 0.01 nM
B4: 3E05_var9 (antibody, human IgG1, V domains shown)
VH: B1 VH
VL: B1 VL with A25S, S53Y, V89T
notes: also called 3E05 VL3VH1 (var_9)

EC50 [1]: 0.25 nM | fold higher affinity than parental wild type 3E05 and AC144 [2]: > 100 fold | Kd [3]: < 0.01 nM
B5: 3E05_var16 (antibody, human IgG1, V domains shown)
VH: B1 VH with N57Q, D103E
VL: B1 VL with D32E

EC50 [1]: 0.45 nM | fold higher affinity than parental wild type 3E05 and AC144 [2]: > 100 fold | Kd [3]: < 0.01 nM
B8: 3E05_var13 (antibody, human IgG1, V domains shown)
VH: B1 VH
VL: B1 VL with D32E
notes: also called 3E05 VL4VH1 (var_13)

EC50 [1]: 0.33 nM | fold higher affinity than parental wild type 3E05 and AC144 [2]: > 100 fold | Kd [3]: < 0.01 nM
B9: 3E05_var7 (antibody, human IgG1, V domains shown)
VH: B1 VH with N57Q
VL: B1 VL with A25S, V89T
notes: also called 3E05 VL2VH3 (var_7)

EC50 [1]: 0.21 nM | fold higher affinity than parental wild type 3E05 and AC144 [2]: > 100 fold | Kd [3]: < 0.01 nM
B10: 3E05_var8 (antibody, human IgG1, V domains shown)
VH: B1 VH with N57Q, D103E
VL: B1 VL with A25S, V89T

EC50 [1]: 0.29 nM | fold higher affinity than parental wild type 3E05 and AC144 [2]: > 100 fold | Kd [3]: < 0.01 nM
B11: 3E05_var4 (antibody, human IgG1, V domains shown)
VH: B1 VH with N57Q, D103E
VL: B1 VL
notes: also called 3E05 VL1VH4 (var_4)
